No end group written: not given here.
T1: recombinant HMG1 produced in E. coli as calmodulin binding protein (CBP) fusion (human)
T1 chain: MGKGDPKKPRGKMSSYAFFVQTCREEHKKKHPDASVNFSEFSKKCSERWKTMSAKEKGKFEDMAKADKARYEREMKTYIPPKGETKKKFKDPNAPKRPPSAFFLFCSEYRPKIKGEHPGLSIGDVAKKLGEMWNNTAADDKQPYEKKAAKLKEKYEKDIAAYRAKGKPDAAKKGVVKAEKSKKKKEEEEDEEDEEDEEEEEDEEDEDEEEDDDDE

T2: HMGB1 B-box peptide 91-108 (human, also: biotinylated, site not given here)
T2 peptide: DPNAPKRPPSAFFLFCSE

B1: anti-HMG1 antibody S14 (antibody, V domains shown)
VH: EVQLLESGGGLVQPGGSLRLSCAASGFTFSWYETGWVRQAPGKGLEWVSGISPSGGYTQYADSVKGRFTISRDNSKNTLYLQMNSLRAEDTAVYYCARSGVGATKIFDYWGQGTLVTVSS
VL: DIQMTQSPSSLSASVGDRVTIICRANERINTYLNWYQQKPGKAPKLLISGTSSLESGVPSRFSGSGSGTEFTLSISSLQPEDFASYYCQQSYSSPYTFGQGTNLEIR
B2: anti-HMG1 antibody G9 (antibody, V domains shown)
VH: EVQLLESGGGLVQPGGSLRLSCAASGFTFSSYDMFWVRQAPGKGLEWVSRISPSGGYTYYADSVKGRFTISRDNSKNTLYLQMNSLRAEDTAVYYCARLRYFDSRGYAFDIWGQGTMVTVSS
VL: DIQMTQSPGTLSLSPGERATLSCRASQSVRSSYLAWYQQKPGQAPRLLIYGASTRATGIPDRFSGSGSGTDFTLTISRLEPEDFAVYYCQQYGTSRWTFGQGTKVEIK
B3: anti-HMG1 antibody E11 (antibody, V domains shown)
VH: EVQLLESGGGLVQPGGSLRLSCAASGFTFSRYQMNWVRQAPGKGLEWVSSISPSGGHTHYADSVKGRFTISRDNSKNTLYLQMNSLRAEDTAVYYCAKDGRQGKISTVDHWGQGTLVTVSS
VL: DIQMTQSPGTLSLSPGERATLSCRASQSVRSNFLAWYQQKPGQAPRLLIYGASRRASGIPDRFSGSGFGADFTLSISRLEPEDFAVYYCQQYGSSPNTFGQGSRVEIK
B4: anti-HMG1 antibody S6 (antibody, V domains shown)
VH: EVQLLESGGGLVQPGGSLRLSCAASGFTFSWYDMSWVRQAPGKGLEWVSRISPSGGYTMYADSVKGRFTISRDNSKNTLYLQMNSLRAEDTAVYYCARLEVGATSGGTAFDIWGQGTMVTVSS
VL: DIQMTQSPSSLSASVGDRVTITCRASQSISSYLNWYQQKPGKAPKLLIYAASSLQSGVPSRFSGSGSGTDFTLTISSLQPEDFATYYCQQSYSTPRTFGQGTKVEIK
notes: also called ATCC PTA-6143
B5: anti-HMG1 antibody G12 (antibody, V domains shown)
VH: EVQLLESGGGLVQPGGSLRLSCAASGFTFSYYMMTWVRQAPGKGLEWVSSISPSGGYTIYADSAKGRFTISRDNSKNTLYLQMNSLRAEDTAVYYCARALSTGSFWDYWGQGTLVTVSS
VL: DIQMTQSPGTLSLSPGERATLSCRASESLTSTYVAWYQHKPGQAPRLLIHGGSTRATGIPVRFSGSGSGTDFTLTIATLEPEDFAVYYCQQYGSSPYTFGQGTKLEIK
B6: anti-HMG1 antibody G34 (antibody, V domains shown)
VH: EVQLLESGGGLVQPGGSLRLSCAASGFTFSHYMMGWVRQAPGKGLEWVSRISPSGGGTVYADSVKGRFTISRDNSKNTLYLQMNSLRAEDTAVYYCARGGNWNYISYYYYYLDVWGKGTTVTVSS
VL: DIQMTQSPSSLSASVGDRVAITCRASQSIDTYLNWYQQKPGKAPKLLIYAASKLEDGVPSRFSGSGTGTDFTLTIRSLQPEDFASYFCQQSYSSPGITFGPGTKVEIK
B7: anti-HMG1 antibody S17 (antibody, V domains shown)
VH: EVQLLESGGGLVQPGGSLRLSCAASGFTFSYYDMHWVRQAPGKGLEWVSRISPSGGYTWYADSVKGRFTISRDNSKNTLYLQMNSLRAEDTAVYYCTRGRYTSGWHEYFDPWGQGTLVTVSS
VL: DIQMTQSPSSLSASVGDRVTITCRASQSIGTYLNWYQQKPGTAPKVLIYAASSLQSGVPSRFSGSGSGTDFTLTISSLQPEDFSTYYCQQSYNTPRTFGQGTKLEIK
B8: anti-HMG1 antibody G2 (antibody, V domains shown)
VH: EVQLLESGGGLVQPGGSLRLSCAASGFTFSWYKMQWVRQAPGKGLEWVSGISPSGGSTAYADSVKGRFTISRDNSKNTLYLQMNSLRAEDTAVYYCAKMGLFNTGNSYVDYWGQGTLVTVSS
VL: AQSELTQPPSVSEAPGQRVTISCSGSTSNIGNNAVIWYQQLPGKAPKLLIYYDDLLPSGVSDRFSGSKSGTSGSLAISGLQSEDEADYYCASWDDNLNGPLFGGGTKLTVL
B9: anti-HMG1 antibody G16 (antibody, V domains shown)
VH: EVQLLESGGGLVQPGGSLRLSCAASGFTFSWYKMTWVRQAPGKGLEWVSSISPSGGFTSYADSVKGRFTISRDNSKNTLYLQMNSLRAEDTAVYYCARDLDIRHAFDIWGQGTMVTVSS
VL: DIQMTQSPGTLSLSPGESGTLSCRASESVSSRHFAWYQQKPGQAPRLLIYGASSRPTGIPDRFSGSGSGTDFTLTLSRLEPEDFAVYFCQYYGSSPYTFGGGTKVEMK
B10: anti-HMG1 antibody G20 (antibody, V domains shown)
VH: EVQLLESGGGLVQPGGSLRLSCAASGFTFSWYDMFWVRQAPGKGLEWVSWISPSGGYTKYADSVKGRFTISRDNSKNTLYLQMNSLRAEDTAMYYCARSGLDYYDSSGYLDAFDIWGQGTMVTVSS
VL: DIQMTQSPSSVSASVGDRVTITCRASQDVSIWLAWYQQKPGKAPKLLIFGASRLQSGVPSRFSGSRSGADFTLTIDSVQPEDFASYYCQQADSFPLTFGGGTKVEIK
B11: anti-HMG1 antibody G35 (antibody, V domains shown)
VH: EVQLLESGGGLVQPGGSLRLSCAASGFTFSWYKMVWVRQAPGKGLEWVSSIVPSGGITIYADSVKGRFTISRDNSKNTLYLQMNSLRAEDTAVYYCARVQQWLGRPYFDYWGQGTLVTVSS
VL: DIQMTQSPLSLPVTPGEPASISCRSSQSLLHGNGYNYLDWYLQRPGQSPQLLIYSGSNRASGVPDRFSGSGSGTDFTLKISRVEAEDVGVYYCMQSLQSRTFGQGTKVEIK
B12: anti-HMG1 antibody S12 (antibody, V domains shown)
VH: EVQLLESGGGLVQPGGSLRLSCAASGFTFSKYIMHWVRQAPGKGLEWVSGIVPSGGLTEYADSVKGRFTISRDNSKNTLYLQMNSLRAEDTATYYCAKEIFGQFDYWGQGTLVTVSS
VL: AQSALTQPPSVSAAPRQRVTISCSGSTSNIGNNAVTWYQYFPGKAPKLLIYSDNQRPSGVPDRFSGSKSGTSASLAITGLQAEDEADYYCQSYDRGLSVVFGGGTKLTVL
B13: anti-HMG1 antibody S16 (antibody, V domains shown)
VH: EVQLLESGGGLVQPGGSLRLSCAASGFTFSWYSMLWVRQAPGKGLEWVSYISPSGGFTNYADSVKGRFTISRDNSKNTLYLQMNSLRAEDTAVYYCARWDYNSGWYYDHWGQGTLVTVSS
VL: DIQMTQSPDTLSLSPGERATLSCRASQSVNSRNLAWYQQKPGQAPRLLIYGASTRATGIPDRFSGSVSGTEFTLTISSLQPDDFATYYCQQYNSYFTFGQGTKLEIK
notes: also called ATCC PTA-6259

Key:
[1] = biological target: T1, recombinant HMG1 produced in E. coli as …; assay: cell-based or functional assay
[2] = biological target: T1, recombinant HMG1 produced in E. coli as …; assay: BIAcore 3000; mAb amine-coupled to CM5, HMG1 injected in two-fold dilutions; steady-state model
Procedure: HMG1 Binding Affinity via BIAcore Analysis: All experiments were performed on a BIAcore 3000 instrument (BIAcore, Inc., Piscataway, N.J.). Briefly, each mAb was immobilized to a CM5 sensor chip using a standard amine coupling chemistry. Separately a reference (control) flow cell was also prepared. Two-fold, serial dilutions of HMG1 in instrument buffer were sequentially injected at a slow flow rate over the individual mAb and reference flow-cell surfaces. Following the binding and dissociation of HMG1, the mAbs surfaces were regenerated with a brief pulse of 1M NaCl-50 mM NaOH. At the end of each experiment, the binding curves were evaluated using a steady-state model available through the BIAevaluation software supplied by BIAcore, Inc. (Piscataway, N.J.).

[3] = biological target: T1, recombinant HMG1 produced in E. coli as …; assay: ELISA; HMGB1 preincubated with antibody, then added to immobilised RAGE-Fc
Procedure: HMG1 binding to RAGE-Ig by ELISA: 50 μl/well of RAGE-Fc fusion protein at 5 μg/ml in PBS was added to each well of an ELISA plate and incubated overnight at 4° C. The plate was then blocked with 200 μl of 5% milk at 37° C. for 1 hr and washed 3× with PBS/Tween. 50 μl/well of diluted HMGB1 solution. For dose curves, HMGB1 concentrations started at 4 ug/ml in PBS. For antibody blocking the HMGB1 was preincubated in another plate with human anti-HMG1 antibodies or buffer, then transferred to the RAGE-coated plate. The plates were then incubated at room temperature for 2 hours and washed 3×. To detect any HMG1 bound to the immobilized RAGE-Fc a mixture of biotinylated mouse anti-HMG1 mAbs (10D4, 4H11, 3E10 and 5C12) each at 1 ug/ml, total Ab: 4 ug/ml, were added to each well and the plate was incubated for 1 hour at room temperature. The plate was then washed and Strepavidin-HPR was added to each well and incubated 15 min. The plate was then washed 3× and blotted dry. 100 μl of TMB developing agent was added and the plate read at 650 nm. Values were calculated as percent of inhibition with HMG1 alone equal to 0% inhibition. The data in FIG. 9 and summarized in Table 1 represent the average of two separate experiments.

[4] = biological target: T2, HMGB1 B-box peptide 91-108; assay: ELISA on biotinylated peptides captured on avidin
Procedure: The plate was then blocked with 4% milk powder dissolved in PBS at 37° C. for 1 hour. The blocking solution was removed and replaced with human anti-HMG1 antibodies at various concentrations (see FIGS. 5A-B). […] HRP activity was detected with Sureblue HRP substrate (KPL). Plates were read at 450 nm using a Kinetic Microplate Reader (Molecular Devices). […] After washing and blocking with 1% BSA in PBS, the biotinylated peptides were individually added into the avidin coated wells and incubated for 30 min at room temperature. The serial diluted antibody G4, S16 and S6 at the initial concentration at 10 μg/ml were then transferred into the wells followed by adding mouse anti human IgG-HRP conjugate (Pierce). Detection was accomplished by adding 50 μl of tetramethylbenzidine (TMB) substrate (KPL) and the absorbance was read at 450 nm.

| Binder | IC50, inhibition of rHMG1 stimulated IL-1β release from human PBMCs [1] [µg/mL] | IC50, inhibition of rHMG1 stimulated IL-6 release from human PBMCs [1] [nM] | IC50, inhibition of rHMG1 stimulated TNF-α release from human PBMCs [1] [µg/mL] | Kd [2] [nM] | IC50, inhibition of HMG1 stimulated NO release from macrophages [1] [µg/mL] | percent inhibition of HMG1 binding to RAGE [3] [%] | IC50, inhibition of rHMG1 stimulated IL-12 release from human PBMCs [1] [µg/mL] | binding result [4] |
| --- | --- | --- | --- | --- | --- | --- | --- | --- |
| B1 | 0.0678 | 0.191 | 0.0662 | 205 | – | – | – | – |
| B2 | 0.211 | 0.246 | 0.248 | 125 | – | – | – | – |
| B3 | – | 1.22 | – | – | 101 | – | – | – |
| B4 | 0.0232 | 0.174 | 0.0182 | 39 | 4.15 | ≥ 35 | – | – |
| B5 | 5.91 | 1.12 | 0.796 | 73 | – | – | 2.79 | – |
| B6 | – | 0.858 | – | 67 | – | – | – | – |
| B7 | 0.0809 | 0.162 | – | – | 41.7 | – | – | – |
| B8 | 5.03 | 0.994 | 1.35 | – | – | – | 1.26 | – |
| B9 | – | 1.06 | – | 22 | 22 | – | – | – |
| B10 | 0.4 | 0.652 | 0.598 | – | 20.4 | – | – | – |
| B11 | – | 0.564 | – | 242 | – | – | – | – |
| B12 | – | 1.67 | – | – | – | – | – | – |
| B13 | 6.05 | 0.56 | 1.44 | 23 | – | ≥ 35 | 1.24 | binds |
